According to the RNAGym collection of RNA variant scans (doi:10.1021/acssynbio.7b00057):

B1: Pistol ribozyme (parent)
chain: GGGUCGUUGUUCCAUAAUCGCGUGGAUAUGGCACGCAAGUUUCUACCGGGCACCGUAAAUGUCCGACUGGAGCCGUUCGGGCGGCUAUAAACAGACCUCAGGCCCGAAGCGUGGCGGCACCUGCCGCCGGUGGUAAAAAAGAUCGGAAGAGCACACGUCU

Variants of: B1
Assay: aptazyme ON/OFF ratio, guanine; higher = stronger switching; co-transcriptional cleavage with and without guanine

Row | Variant | aptazyme ON/OFF ratio
1 | U7A U10G U11A C12A C13U | 1.08
2 | U7A U10G U11A C12A C13G | 1.11
3 | U7A U10G U11A C12A C13A | 1.17
4 | U7A U8G U10G U11A C12G C13A | 1.24
5 | U7A U8G U10G U11A C12G C13U | 1.46
6 | U7A U8G U10G U11A C12G C13G | 1.46
7 | U7A U8G U11A C13G | 1.4
8 | U7A U8G U11A C13A | 1.31
9 | U7A U8G U11A C13U | 1.11
10 | U7A U10A U11A C12G | 1.18
11 | U7A U10A U11A C12A | 1.11
12 | U7A U10A U11A C12U | 1.2
13 | U7A U10C U11C C12U C13G | 1.08
14 | U7A U10C U11C C12U C13A | 1.03
15 | U7A U10C U11C C12U C13U | 1.07
16 | U7A U10G U11A | 1.06
17 | U7A U10G U11G | 1.27
18 | U7A U10G U11C | 1.04
19 | U7A U8G U10C U11G C12G C13G | 1.35
20 | U7A U8G U10C U11G C12G C13U | 1.41
21 | U7A U8G U10C U11G C12G C13A | 1.19
22 | U7A U10C U11C C12A C13U | 1.1
23 | U7A U10C U11C C12A C13A | 1.06
24 | U7A U10C U11C C12A C13G | 1.16

Row | Variant | aptazyme ON/OFF ratio
25 | U7A U10G U11G C12U | 1.28
26 | U7A U10G U11G C12A | 1.29
27 | U7A U10G U11G C12G | 1.45
28 | U7A U8G U10G C12U C13U | 1.26
29 | U7A U8G U10G C12U C13A | 1.11
30 | U7A U8G U10G C12U C13G | 1.28
31 | U7A U8G U10G U11C C12U C13G | 1.11
32 | U7A U8G U10G U11C C12U C13A | 0.988
33 | U7A U8G U10G U11C C12U C13U | 1.41
34 | U7A U10G U11A C12U | 1.13
35 | U7A U10G U11A C12A | 1.36
36 | U7A U10G U11A C12G | 1.24
37 | U7A U10C C12A | 1.37
38 | U7A U10C C12U | 3.22
39 | U7A U10C C12G | 1.42
40 | U7A U10G C13A | 1.31
41 | U7A U10G C13U | 1.27
42 | U7A U10G C13G | 1.23
43 | U7A U10A U11C C12U C13U | 1.04
44 | U7A U10A U11C C12U C13G | 1.07
45 | U7A U10A U11C C12U C13A | 1.07
46 | U7A U8G U10G U11A C12A C13U | 1.34
47 | U7A U8G U10G U11A C12A C13A | 1.55
48 | U7A U8G U10G U11A C12A C13G | 1.27

Row | Variant | aptazyme ON/OFF ratio
49 | U7A U10G U11C C13G | 1.08
50 | U7A U10G U11C C13U | 1.05
51 | U7A U10G U11C C13A | 1.07
52 | U7A U10C U11C C12G C13A | 1.04
53 | U7A U10C U11C C12G C13G | 1.09
54 | U7A U10C U11C C12G C13U | 1.06
55 | U7A U8G U10G U11C C12G | 1.14
56 | U7A U8G U10G U11C C12A | 1.21
57 | U7A U8G U10G U11C C12U | 1.53
58 | U7A U8G U10G U11C C12G C13A | 1.22
59 | U7A U8G U10G U11C C12G C13U | 1.56
60 | U7A U8G U10G U11C C12G C13G | 1.22
61 | U7A U10G C12U C13G | 1.12
62 | U7A U10G C12U C13A | 1.41
63 | U7A U10G C12U C13U | 1.36
64 | U7A U10C U11A C13A | 1.15
65 | U7A U10C U11A C13U | 1.16
66 | U7A U10C U11A C13G | 1.09
67 | U7A U10A U11C C12G C13A | 1.08
68 | U7A U10A U11C C12G C13G | 1.17
69 | U7A U10A U11C C12G C13U | 1.1
70 | U7A U10A U11G C12G C13G | 1.11
71 | U7A U10A U11G C12G C13A | 1.06
72 | U7A U10A U11G C12G C13U | 1.16

Row | Variant | aptazyme ON/OFF ratio
73 | U7A U10C U11G C12U C13A | 1.27
74 | U7A U10C U11G C12U C13U | 1.2
75 | U7A U10C U11G C12U C13G | 1.31
76 | U7A U8G U10C U11A C13A | 1.45
77 | U7A U8G U10C U11A C13U | 1.21
78 | U7A U8G U10C U11A C13G | 1.21
79 | U7A U8G U10G C12A C13G | 1.12
80 | U7A U8G U10G C12A C13U | 1.15
81 | U7A U8G U10G C12A C13A | 1.04
82 | U7A U8G U11A C12U C13A | 1.5
83 | U7A U8G U11A C12U C13U | 1.18
84 | U7A U8G U11A C12U C13G | 1.35
85 | U7A U10A U11G C12A C13A | 1.17
86 | U7A U10A U11G C12A C13U | 1.17
87 | U7A U10A U11G C12A C13G | 1.39
88 | U7A U10A U11C C13A | 1.02
89 | U7A U10A U11C C13G | 1.03
90 | U7A U10A U11C C13U | 1
91 | U7A U8G U10G C13G | 1.14
92 | U7A U8G U10G C13U | 1.55
93 | U7A U8G U10G C13A | 1.26
94 | U7A U8G U10G U11A | 2.88
95 | U7A U8G U10G U11G | 1.44
96 | U7A U8G U10G U11C | 1.39

Row | Variant | aptazyme ON/OFF ratio
97 | U7A U10C C12A C13U | 1.21
98 | U7A U10C C12A C13A | 1.35
99 | U7A U10C C12A C13G | 1.12
100 | U7A U10A U11G C12U C13U | 1.35
101 | U7A U10A U11G C12U C13A | 1.11
102 | U7A U10A U11G C12U C13G | 1.45
103 | U7A U10C U11G | 1.25
104 | U7A U10C U11A | 1.2
105 | U7A U10C U11C | 1.03
106 | U7A U10A U11A C12A C13A | 1.23
107 | U7A U10A U11A C12A C13U | 1.21
108 | U7A U10A U11A C12A C13G | 1.14
109 | U7A U8G U10G U11A C12A | 1.09
110 | U7A U8G U10G U11A C12G | 1.59
111 | U7A U8G U10G U11A C12U | 1.33
112 | U7A U10C U11C C13A | 1.03
113 | U7A U10C U11C C13G | 1.07
114 | U7A U10C U11C C13U | 1.03
115 | U7A U8G U11C C12G C13A | 1.02
116 | U7A U8G U11C C12G C13U | 1.2
117 | U7A U8G U11C C12G C13G | 1.17
118 | U7A U10A U11C | 1
119 | U7A U10A U11G | 1.35
120 | U7A U10A U11A | 1.21

Row | Variant | aptazyme ON/OFF ratio
121 | U7A U10C U11G C12A | 1.08
122 | U7A U10C U11G C12U | 1.24
123 | U7A U10C U11G C12G | 1.26
124 | U7A U8G U11G | 1.95
125 | U7A U8G U11C | 1.32
126 | U7A U8G U11A | 1.49
127 | U7A U10A C13U | 1.07
128 | U7A U10A C13G | 1.05
129 | U7A U10A C13A | 1.07
130 | U7A U10A U11C C12A | 1.08
131 | U7A U10A U11C C12G | 1.1
132 | U7A U10A U11C C12U | 1.03
133 | U7A U8G U10G U11A C12U C13U | 1.15
134 | U7A U8G U10G U11A C12U C13G | 0.975
135 | U7A U8G U10G U11A C12U C13A | 1.21
136 | U7A U10A U11G C13A | 1.31
137 | U7A U10A U11G C13G | 1.3
138 | U7A U10A U11G C13U | 1.19
139 | U7A U8G U10G U11C C13A | 1.11
140 | U7A U8G U10G U11C C13G | 1.29
141 | U7A U8G U10G U11C C13U | 1.3
142 | U7A U10C C13A | 1.06
143 | U7A U10C C13U | 1.13
144 | U7A U10C C13G | 1.08

Row | Variant | aptazyme ON/OFF ratio
145 | U7A U10G U11A C12G C13A | 1.08
146 | U7A U10G U11A C12G C13U | 1.28
147 | U7A U10G U11A C12G C13G | 1.17
148 | U7A U10G C12A | 1.16
149 | U7A U10G C12G | 1.36
150 | U7A U10G C12U | 1.29
151 | U7A U8G U11C C12U C13U | 1.36
152 | U7A U8G U11C C12U C13G | 1.03
153 | U7A U8G U11C C12U C13A | 1.43
154 | U7A U10C U11A C12A C13G | 1.23
155 | U7A U10C U11A C12A C13A | 1.21
156 | U7A U10C U11A C12A C13U | 1.11
157 | U7A U10A C12U C13U | 1.27
158 | U7A U10A C12U C13G | 1.14
159 | U7A U10A C12U C13A | 1.18
160 | U7A U8G U10C U11A C12U C13U | 1.18
161 | U7A U8G U10C U11G C13U | 1.53
162 | U7A U8G U10C U11G C13G | 1.07
163 | U7A U8G U10C U11G C13A | 1.23
164 | U7A U10G U11G C12A C13G | 1.16
165 | U7A U10G U11G C12A C13A | 1.19
166 | U7A U10G U11G C12A C13U | 1.22
167 | U7A U8G U10G U11G C12G C13U | 1.18
